Laboratory results: PMC11211510, “Sequence-specific dynamic DNA bending explains mitochondrial TFAM’s dual role in DNA packaging and transcription initiation”

Columns and labels:
TFAM [1] = target: T1, TFAM (UniProt Q00059 43-245); assay: fluorescence anisotropy; 10 mM Mg acetate; apparent Kd; 50 mM Tris acetate pH 7.5, 100 mM Na glutamate, 50 mM NaCl, 10 mM Mg acetate, 0.5 mM TCEP, 0.01% Tween 20, 0.1 mg/ml BSA, 25 °C; 5 nM DNA, 0-75 nM TFAM; conditions: protein: recombinant; tags: N-terminal 6xHis, TEV-cleaved; label: fluorescein (FITC) at 3' end of template strand; blunt
T1 sequence: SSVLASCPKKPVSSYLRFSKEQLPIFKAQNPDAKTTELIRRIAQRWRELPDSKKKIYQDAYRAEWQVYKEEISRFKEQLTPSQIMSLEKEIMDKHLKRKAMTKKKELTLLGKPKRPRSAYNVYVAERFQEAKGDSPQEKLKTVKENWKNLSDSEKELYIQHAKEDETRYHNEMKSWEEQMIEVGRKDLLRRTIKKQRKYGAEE

[2] = target: T2, TFAM-ΔC26 (C-tail deletion) (UniProt Q00059 43-220); assay: fluorescence anisotropy; 10 mM Mg acetate; 50 mM Tris acetate pH 7.5, 100 mM Na glutamate, 50 mM NaCl, 10 mM Mg acetate, 0.5 mM TCEP, 0.01% Tween 20, 0.1 mg/ml BSA, 25 °C; 5 nM DNA, 0-75 nM TFAM; conditions: protein: recombinant; tags: SUMO fusion, cleaved; label: fluorescein (FITC) at 3' end of template strand; blunt
T2 sequence: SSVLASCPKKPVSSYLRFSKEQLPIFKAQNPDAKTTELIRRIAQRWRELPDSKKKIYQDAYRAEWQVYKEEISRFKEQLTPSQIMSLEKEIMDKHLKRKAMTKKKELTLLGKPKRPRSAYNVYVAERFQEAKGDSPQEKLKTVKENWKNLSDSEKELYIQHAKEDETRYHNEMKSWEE

TFAM [3] = target: T1, TFAM; assay: smFRET; bending equilibrium K(F/P) 0.59 ± 0.24; 50 mM Tris acetate pH 7.5, 100 mM Na glutamate, 50 mM NaCl, 10 mM Mg acetate, 0.5 mM TCEP, 0.01% Tween 20, 0.1 mg/ml BSA, 25 °C; 5 nM DNA, 0-75 nM TFAM; conditions: protein: recombinant; tags: N-terminal 6xHis, TEV-cleaved; label: Atto565 at 5' non-template, Atto647N at 5' template; blunt
TFAM [4] = target: T1, TFAM; assay: smFRET; bending equilibrium K(F/P) 24.6 ± 7.6; 50 mM Tris acetate pH 7.5, 100 mM Na glutamate, 50 mM NaCl, 10 mM Mg acetate, 0.5 mM TCEP, 0.01% Tween 20, 0.1 mg/ml BSA, 25 °C; 5 nM DNA, 0-75 nM TFAM; conditions: protein: recombinant; tags: N-terminal 6xHis, TEV-cleaved; label: Atto565 at 5' non-template, Atto647N at 5' template; blunt
TFAM [5] = target: T1, TFAM; assay: smFRET; bending equilibrium K(F/P) 1.70 ± 0.74; 50 mM Tris acetate pH 7.5, 100 mM Na glutamate, 50 mM NaCl, 10 mM Mg acetate, 0.5 mM TCEP, 0.01% Tween 20, 0.1 mg/ml BSA, 25 °C; 5 nM DNA, 0-75 nM TFAM; conditions: protein: recombinant; tags: N-terminal 6xHis, TEV-cleaved; label: Atto565 at 5' non-template, Atto647N at 5' template; blunt

B1: NS (non-specific), fluorescein (dsDNA)
DNA 1: TAGCAGGAGCAGGAACAGGATGAACAAGCA
DNA 2: TGCTTGTTCATCCTGTTCCTGCTCCTGCTA
- Kd (TFAM [1]): ~44 nM
- Kd [2]: ~100 nM

B2: NS, Atto565/Atto647N (dsDNA)
DNA 1: B1 DNA 1
DNA 2: B1 DNA 2
modifications: biotin-2xPEG18 at 3' end of template
- binding result (TFAM [3]): binds

B3: LSP (-41 to -12), fluorescein (dsDNA)
DNA 1: TGTGTTAGTTGGGGGGTGACTGTTAAAAGT
DNA 2: ACTTTTAACAGTCACCCCCCAACTAACACA
- Kd (TFAM [1]): ~9 nM

B4: LSP, Atto565/Atto647N (dsDNA)
DNA 1: B3 DNA 1
DNA 2: B3 DNA 2
modifications: biotin-2xPEG18 at 3' end of template
- binding result (TFAM [4]): binds

B5: HSP, Atto565/Atto647N (dsDNA)
DNA 1: CACACCGCTGCTAACCCCATACCCCGAACC
DNA 2: GGTTCGGGGTATGGGGTTAGCAGCGGTGTG
modifications: biotin-2xPEG18 at 3' end of template
- binding result (TFAM [5]): binds

B6: HSP (-41 to -12), fluorescein (dsDNA)
DNA 1: B5 DNA 1
DNA 2: B5 DNA 2
- Kd (TFAM [1]): ~43 nM
- Kd [2]: ~100 nM
